Residue numbers refer to the chain shown, from its start.
B1: A137L1F8L5M3 (Fc fusion)
chain: YSEGTFTSDYSKYLDSQAAQDFVQWLLDGGPSSGAPPPSGGGGSGGGGSGGGGSAESKYGPPCPPCPAPEAAGGPSVFLFPPKPKDTLMISRTPEVTCVVVDVSQEDPEVQFNWYVDGVEVHNAKTKPREEQFASTYRVVSVLTVLHQDWLNGKEYKCKVSNKGLPSSIEKTISKAKGQPREPQVYTLPPSQEEMTKNQVSLTCLVKGFYPSDIAVEWESNGQPENNYKTTPPVLDSDGSFFLYSRLTVDKSRWQEGNVFSCSVMHEALHNHYTQKSLSLSLGGGGGAGGGGAGGGGADSSPLLQFGGQVRQRYLYTDDAQQTEAHLEIREDGTVGGAADQSPESLLQLKALKPGVIQILGVKTSRFLCQRPDGALYGSLHFDPEACSFRELLLEDGYNVYQSEAHGLPLHCPGNKSPHRDPAPRGPCRFLPLPGLPPALPEPPGILAPQPPDVGSSDPLAMVGPSQGRSPSYAS
B2: A175L1F8L5M3 (Fc fusion)
chain: B1 chain with D28A
B3: A352L1F8L5W (Fc fusion)
chain: HSQGTFTSDYSKYLDSQAAQDFVQWLLAGGPSSGAPPPSGGGGSGGGGSGGGGSAESKYGPPCPPCPAPEAAGGPSVFLFPPKPKDTLMISRTPEVTCVVVDVSQEDPEVQFNWYVDGVEVHNAKTKPREEQFASTYRVVSVLTVLHQDWLNGKEYKCKVSNKGLPSSIEKTISKAKGQPREPQVYTLPPSQEEMTKNQVSLTCLVKGFYPSDIAVEWESNGQPENNYKTTPPVLDSDGSFFLYSRLTVDKSRWQEGNVFSCSVMHEALHNHYTQKSLSLSLGGGGGAGGGGAGGGGAHPIPDSSPLLQFGGQVRQRYLYTDDAQQTEAHLEIREDGTVGGAADQSPESLLQLKALKPGVIQILGVKTSRFLCQRPDGALYGSLHFDPEACSFRELLLEDGYNVYQSEAHGLPLHLPGNKSPHRDPAPRGPARFLPLPGLPPALPEPPGILAPQPPDVGSSDPLSMVGPSQGRSPSYAS
B4: A352L1F8L5M1 (Fc fusion)
chain: B3 chain with L396R, P469G, A478E
B5: A382L1F8L5M1 (Fc fusion)
chain: B3 chain with A28D, L396R, P469G, A478E

Each binder was assayed against human GLP-1R (human, UniProt P43220 24-463) (assay: cell-based or functional assay).
For B1, the “GLP-1R agonist activity (EC50, nM)” value was 59.1 nM.
B2 was tested, and the “GLP-1R agonist activity (EC50, nM)” value was 47.1 nM.
B3 was tested, and the “GLP-1R agonist activity (EC50, nM)” value was 1.34 nM.
With B4 the “GLP-1R agonist activity (EC50, nM)” value was 1.13 nM.
With B5 the “GLP-1R agonist activity (EC50, nM)” value was 1.13 nM.

These binders were tested against GCGR (assay: cell-based or functional assay).
In the case of B1, the “GCGR agonist activity (EC50, nM)” value is reported as 41.2 nM.
In the case of B2, the “GCGR agonist activity (EC50, nM)” value is reported as 39.2 nM.
With B3 the “GCGR agonist activity (EC50, nM)” value was 1.22 nM.
For B4, the “GCGR agonist activity (EC50, nM)” value was 1.2 nM.
With B5 the “GCGR agonist activity (EC50, nM)” value was 1.2 nM.

What follows are binders tested against β-klotho (KLB) (assay: cell-based or functional assay).
In the case of B1, the “FGF21 activity (EC50, nM)” value is reported as 0.82 nM.
For B2, the “FGF21 activity (EC50, nM)” value was 0.63 nM.
For B3, the “FGF21 activity (EC50, nM)” value was 0.55 nM.
In the case of B4, the “FGF21 activity (EC50, nM)” value is reported as 0.79 nM.
In the case of B5, the “FGF21 activity (EC50, nM)” value is reported as 0.79 nM.
